# Measured values from patent US12091454B2, “Humanized anti-human neurotensin receptor 1 antibodies and their uses” (DEVELOPMENT CENTER FOR BIOTECHNOLOGY, priority 2022, dated 2024).
# B1: AKT2 HuHu: humanized anti-NTSR1 antibody, AKT2 HuVH (SEQ ID NO: 16) and AKT2 HuVL (SEQ ID NO: 17) (antibody, V domains shown)
# VH: QVQLVQSGAEVKKPGASVKVSCKASGYAFTSSWIHWVRQAPGQGLEWMGQIRPNSGNTYYNEKFKVRVTMTRDTSTSTVYMELSSLRSEDTAVYYCARYHYGFDYWGQGTLVTVSS
# VL: DIVMTQTPLSLSVTPGQPASISCRSSQSIVHSNGNTYLEWYLQKPGQSPQLLIYKVSNRFSGVPDRFSGSGSGTDFTLKISRVEAEDVGVYYCFQGAHLPWTFGQGTKVEIK
# B2: AKT2 HuHd: humanized anti-NTSR1 antibody, AKT2 HuVH (SEQ ID NO: 16) and AKT2 HdVL (SEQ ID NO: 15) (antibody, V domains shown)
# VH: B1 VH
# VL: DIQMTQSPSSLSASVGDRVTITCRSSQSIVHSNGNTYLEWYQQKPGKAPKLLIYKVSNRFSGVPSRFSGSGSGTDFTLTISSLQPEDFATYYCFQGAHLPWTFGQGTKVEIK
# B3: αNTSR1 (AKT2 Hu/Hu) 4seco-DUBA: antibody-drug conjugate of humanized antibody AKT2 HuHu with seco-DUBA payload (conjugate)
# heavy chain: B1 VH
# light chain: B1 VL
# B4: αNTSR1 (AKT2 Hu/Hd) 4seco-DUBA: antibody-drug conjugate of humanized antibody AKT2 HuHd with seco-DUBA payload (conjugate)
# heavy chain: B1 VH
# light chain: B2 VL
# B5: αNTSR1 (AKT2) 4seco-DUBA: antibody-drug conjugate of chimera antibody AKT2 with seco-DUBA payload (conjugate)
# heavy chain: QVQLQQPGSVLVRPGASVKLSCKASGYAFTSSWIHWAKQRPGQGLEWIGQIRPNSGNTYYNEKFKVKATLTVDTSSSTAYVDLSSLTSEDSAVYYCARYHYGFDYWGQGTLVTVSS
# light chain: DVLMTQTPLSLPVSLGDQASISCRSSQSIVHSNGNTYLEWYLQKPGQSPKLLIYKVSNRFSGVPDRFSGSGSGTDFTLKISRVEAEDLGVYYCFQGAHLPWTFGGGTKLEIK
# Test system: not listed separately
# Experiment: In vivo pharmacokinetic analysis (MSD ECL total antibody assay)
# Details: BALB/c mice, 5 mg/kg via the tail vein, total antibody
# From the text: This Example used Meso Scale Discovery (MSD) Electrochemiluminescent (ECL) method to conduct the PK analysis of the anti-NTSR1 antibodies αNTSR1 (AKT2), αNTSR1 (AKT2 Hu/Hu) and αNTSR1 (AKT2 Hu/Hd) in BALB/c mice samples. The MSD assay can measure both conjugated and unconjugated antibodies. As illustrated in this example, for total antibody assay (including conjugated and unconjugated antibodies), the plate is coated with goat anti-human IgG, which can capture all humanized antibodies (conjugated and unconjugated).
# The mice were administered at a dose level of 5 mg/kg via the tail vein. Blood samples were then obtained at different time points for determining the concentrations of αNTSR1 (AKT2), αNTSR1 (AKT2 Hu/Hu) and αNTSR1 (AKT2 Hu/Hd) in mice by MESO QuickPlex SQ 120 method. The PK parameters of αNTSR1 (AKT2), αNTSR1 (AKT2 Hu/Hu) and αNTSR1 (AKT2 Hu/Hd) were analyzed by noncompartmental analysis using PHOENIX™ for WinNonlin Program, version 6.3.
Molecule,MRT,Vss,t½
B1,252 ± 116 h,0.120 ± 0.026 L/kg,182 ± 90.8 h
B2,209 ± 62.5 h,0.135 ± 0.020 L/kg,156 ± 48.6 h

# Same assay, conditions: BALB/c mice, 5 mg/kg via the tail vein; listed as αNTSR1 (AKT2 Hu/Hd), 5 mg/kg
row,Molecule,in vivo half live
1,B2,156 ± 48.6 h

# Same assay, conditions: BALB/c mice, 5 mg/kg via the tail vein; listed as αNTSR1 (AKT2 Hu/Hu), 5 mg/kg
row,Molecule,in vivo half live
1,B1,182 ± 90.8 h

# Test system: FaDu human head and neck cancer xenograft
# Experiment: Xenograft model of anti-NTSR1 ADCs (head and neck cancer)
# Assay type: in vivo, male NOD SCID mice
# Details: 5 mg/kg, Day 10 to Day 17
# Description: The aim of this study was to evaluate the in vivo anti-tumor efficacy of αNTSR1 (AKT2) 4seco-DUBA, αNTSR1 (AKT2 Hu/Hu) 4seco-DUBA, and αNTSR1 (AKT2 Hu/Hd) 4seco-DUBA in FaDu human head and neck cancer xenograft model in male NOD SCID mice.
# Formulations respectively comprising test article αNTSR1 (AKT2) 4seco-DUBA, test article αNTSR1 (AKT2 Hu/Hu) 4seco-DUBA, test article αNTSR1 (AKT2 Hu/Hd) 4seco-DUBA, and Hu IgG were formulated by diluting the stock with a 25 mM sodium citrate buffer (pH 6.5). […]
# The FaDu cells were maintained in vitro as a monolayer culture in RPMI-1640 medium supplemented with 10% fetal bovine serum at 37° C. in an atmosphere of 5% CO2 in air. The tumor cells were routinely sub-cultured twice weekly by trypsin-EDTA treatment. The cells growing in an exponential growth phase were harvested and counted for tumor inoculation.
# Male NOD SCID mice at age of 6-7 weeks were quarantined for one week. Five mice were housed in each cage. All animals were hosted in the animal facility with a 12-h light/12-h dark cycle at 19-25° C. Animals had free access to rodent pellet foods and water ad libitum.
# FaDu cells were subcutaneously (SC) implanted (4×10^6 cells in 1:1 PBS/matrigel mixture at 0.1 mL per mouse) into the right flank of male NOD SCID mice. When the average tumor volume had reached about 200 mm^3, the mice were randomly divided into 7 groups (N=6 per group). Each of Hu IgG, αNTSR1 (AKT2) 4seco-DUBA (5 mg/kg), αNTSR1 (AKT2 Hu/Hu) 4seco-DUBA (5 mg/kg), and αNTSR1 (AKT2 Hu/Hd) 4seco-DUBA (5 mg/kg) was intravenously administered twice weekly for 3 weeks.
# The tumor volumes, body weights, mortality, and signs of overt toxicity were monitored and recorded three times weekly for 28 days. Tumor volumes (mm^3) were measured three times per week using calipers and calculated according to the formula: Tumor Volume=(w^2×l)/2, where w=width and l=length in diameter (mm) of the tumor. The percentages of tumor growth inhibition (TGI) were calculated using the following formula: % TGI=[1−(T/C)]×100%, where T and C represent the mean tumor volumes of the treatment group and the control group, respectively. A TGI (%) value≥58% was considered as indicating significant anti-tumor activity. Animals were weighed three times weekly until the completion of the study.
row,Molecule,FaDu tumor growth
1,B3,significantly reduced FaDu tumor growth
2,B4,significantly reduced FaDu tumor growth
3,B5,significantly reduced FaDu tumor growth

# Same assay, conditions: 5 mpk, IV, BIW × 3; Day 0
row,Molecule,TGI % (1-T/C) Day 0
1,B1,0.0%
2,B2,0.0%
3,B3,0.0%
4,B4,0.0%
5,B5,0.0%

# Same assay, conditions: 5 mpk, IV, BIW × 3; Day 3
row,Molecule,TGI % (1-T/C) Day 3
1,B1,17.7%
2,B4,6.6%

# Same assay, conditions: 5 mpk, IV, BIW × 3; Day 5
row,Molecule,TGI % (1-T/C) Day 5
1,B1,33.4%
2,B2,13.1%
3,B3,17.5%
4,B4,29.8%
5,B5,28.5%

# Same assay, conditions: 5 mpk, IV, BIW × 3; Day 7
row,Molecule,TGI % (1-T/C) Day 7
1,B1,37.3%
2,B2,28.4%
3,B3,47.2%
4,B4,56.1%
5,B5,54.4%

# Same assay, conditions: 5 mpk, IV, BIW × 3; Day 10
row,Molecule,TGI % (1-T/C) Day 10
1,B1,13.4%
2,B2,36.2%
3,B3,65.4%
4,B4,60.9%
5,B5,68.5%

# Same assay, conditions: 5 mpk, IV, BIW × 3; Day 12
row,Molecule,TGI % (1-T/C) Day 12
1,B1,6.7%
2,B2,40.9%
3,B3,72.2%
4,B4,62.7%
5,B5,83.8%

# Same assay, conditions: 5 mpk, IV, BIW × 3; Day 14
row,Molecule,TGI % (1-T/C) Day 14
1,B1,25.6%
2,B2,37.8%
3,B3,83.8%
4,B4,65.2%
5,B5,90.5%

# Same assay, conditions: 5 mpk, IV, BIW × 3; Day 17
row,Molecule,TGI % (1-T/C) Day 17
1,B1,26.9%
2,B2,32.5%
3,B3,90.8%
4,B4,76.6%
5,B5,95.3%

# Target: NTSR1 protein (Homo sapiens, UniProt P30989)
# Experiment: SPR (BIACORE T200) multi-cycle kinetic assay
# Details: 25° C., one-to-one Langmuir binding model
# Description: To know the binding kinetics differences among individual anti-NTSR1 antibodies, surface plasmon resonance (SPR) measurement with BIACORE™ T200 (CYTIVA® Inc.) was used as previously described (Karlsson & Falt, (1997) J. Immunol Methods 200:121-133). Carboxymethylated dextran biosensor chips (CM5, CYTIVA® Inc.) were activated with N-ethyl-N′-(3-dimethylaminopropyl)-carbodiimide hydrochloride (EDC) and N-hydroxysuccinimide (NHS) according to the supplier's instructions. NTSR1 protein was diluted with 10 mM sodium acetate, pH 4.0, into 5 μg/ml before injection at a flow rate of 10 μL/minute to achieve approximately 1500 response units (RU) of coupled protein followed by the injection of 1 M ethanolamine to block unreacted groups. For kinetics measurements, two-fold serial dilutions of anti-NTSR1 mAb (0.3125 nM to 40 nM) were injected in HBS-EP+BIACORET™ running buffer provided by the manufacturer (CYTIVA® Inc.) at 25° C. at a flow rate of 30 μL/min, and binding responses on the NTSR1 protein were corrected by subtraction of responses on a blank flow cell. Association rates (kon or Ka) and dissociation rates (koff or Kd) were calculated using a simple one-to-one Langmuir binding model with separate fittings of kon and koff. (CYTIVA® BIACORET™ Insight Evaluation Software).
# Chain of NTSR1 protein (P30989 whole entry): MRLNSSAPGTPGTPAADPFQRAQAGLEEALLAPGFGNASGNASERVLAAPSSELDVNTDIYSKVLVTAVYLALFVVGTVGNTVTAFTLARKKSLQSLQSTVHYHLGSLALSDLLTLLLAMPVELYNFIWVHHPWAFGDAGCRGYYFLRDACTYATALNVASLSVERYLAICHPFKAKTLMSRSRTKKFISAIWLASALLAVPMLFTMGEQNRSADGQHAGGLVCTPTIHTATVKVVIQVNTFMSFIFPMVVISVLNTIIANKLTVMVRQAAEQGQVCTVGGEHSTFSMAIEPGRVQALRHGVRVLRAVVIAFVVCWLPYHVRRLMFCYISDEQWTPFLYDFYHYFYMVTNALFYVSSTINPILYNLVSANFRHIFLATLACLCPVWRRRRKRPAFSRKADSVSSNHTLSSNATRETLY
Molecule,"Ka (kon, association rate)","Kd (koff, dissociation rate)"
B1,787700 M⁻¹ s⁻¹,0.0008084 s⁻¹
B2,461400 M⁻¹ s⁻¹,0.0006575 s⁻¹

# Test system: FaDu cells
# Experiment: In vitro cytotoxicity study (CELLTITER-GLO)
# Assay type: cell-based, human
# Details: 72 hours treatment, cell viability, read-out: Relative IC50
# Description: Human head and neck cancer cell line FaDu was respectively grown in RPMI-1640 medium (ATCC® modification) supplemented with 10% fetal bovine serum. The FaDu cell lines were maintained in an atmosphere of 5% CO2 in a humidified 37° C. incubator. The day before treatment, cells were collected and seeded into 96-well plates (4,000 cells per well). Each treatment was performed in eight triplicate data points. After the treatment of 72 hours, cell viability was assessed by CELLTITER-GLO® kit (PROMEGA®) according to the manufacturer's instruction. At the end of the incubation, luminescence was measured using a SpectraMax i3x Multi Mode Detection Platform (MOLECULAR DEVICES®). Compound cytotoxicity was evaluated in comparison to cells treated with 0.05% PBS (ADCs) or 0.05% DMSO (toxic payload). IC50 values were calculated by fitting viability data with a four-parameter logistic equation using GRAPHPAD® prism 5.0 software.
row,Molecule,IC50
1,B3,12.5 nM
2,B4,55 nM
3,B5,36.9 nM
